Reference: PMC4256486 (Molecular & Cellular Proteomics : MCP, 2014)

Experiments:
[1] = target: Lgr5 (control), ectopically expressed on CHO cells (Homo sapiens (assumed), UniProt O75473); assay: flow cytometry on cells
[2] = target: human ephrin type-A receptor 2 (EphA2), ectopically expressed on CHO cells (Homo sapiens, UniProt P29317); assay: flow cytometry on cells
Chain of human ephrin type-A receptor 2 (EphA2), ectopically expressed on CHO cells (P29317 24-976): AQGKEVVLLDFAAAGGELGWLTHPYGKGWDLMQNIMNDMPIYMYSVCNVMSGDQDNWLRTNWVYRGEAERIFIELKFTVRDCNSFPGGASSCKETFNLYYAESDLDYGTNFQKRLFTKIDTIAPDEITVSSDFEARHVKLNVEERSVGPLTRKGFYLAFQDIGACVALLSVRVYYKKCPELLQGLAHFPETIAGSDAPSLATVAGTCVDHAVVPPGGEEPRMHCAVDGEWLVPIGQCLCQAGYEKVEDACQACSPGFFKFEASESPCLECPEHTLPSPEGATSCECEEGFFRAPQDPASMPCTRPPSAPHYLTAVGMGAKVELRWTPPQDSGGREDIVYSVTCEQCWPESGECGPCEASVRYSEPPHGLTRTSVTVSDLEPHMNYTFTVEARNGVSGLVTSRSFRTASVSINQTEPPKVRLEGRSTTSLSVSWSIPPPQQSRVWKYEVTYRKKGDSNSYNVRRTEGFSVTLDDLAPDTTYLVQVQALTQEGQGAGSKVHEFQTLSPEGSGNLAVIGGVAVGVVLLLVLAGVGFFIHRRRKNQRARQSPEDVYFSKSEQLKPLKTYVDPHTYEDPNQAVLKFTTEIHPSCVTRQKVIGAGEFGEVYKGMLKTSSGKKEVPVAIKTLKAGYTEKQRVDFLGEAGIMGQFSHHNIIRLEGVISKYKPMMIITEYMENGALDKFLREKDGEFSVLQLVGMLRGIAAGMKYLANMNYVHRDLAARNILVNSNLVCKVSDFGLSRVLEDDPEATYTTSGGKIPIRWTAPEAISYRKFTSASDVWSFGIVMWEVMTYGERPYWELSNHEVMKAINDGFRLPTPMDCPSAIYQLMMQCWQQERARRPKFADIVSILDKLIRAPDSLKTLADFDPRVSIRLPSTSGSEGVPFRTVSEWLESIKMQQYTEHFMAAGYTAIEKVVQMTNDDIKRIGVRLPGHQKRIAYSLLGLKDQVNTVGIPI

Chain of Lgr5 (control), ectopically expressed on CHO cells (O75473 22-907): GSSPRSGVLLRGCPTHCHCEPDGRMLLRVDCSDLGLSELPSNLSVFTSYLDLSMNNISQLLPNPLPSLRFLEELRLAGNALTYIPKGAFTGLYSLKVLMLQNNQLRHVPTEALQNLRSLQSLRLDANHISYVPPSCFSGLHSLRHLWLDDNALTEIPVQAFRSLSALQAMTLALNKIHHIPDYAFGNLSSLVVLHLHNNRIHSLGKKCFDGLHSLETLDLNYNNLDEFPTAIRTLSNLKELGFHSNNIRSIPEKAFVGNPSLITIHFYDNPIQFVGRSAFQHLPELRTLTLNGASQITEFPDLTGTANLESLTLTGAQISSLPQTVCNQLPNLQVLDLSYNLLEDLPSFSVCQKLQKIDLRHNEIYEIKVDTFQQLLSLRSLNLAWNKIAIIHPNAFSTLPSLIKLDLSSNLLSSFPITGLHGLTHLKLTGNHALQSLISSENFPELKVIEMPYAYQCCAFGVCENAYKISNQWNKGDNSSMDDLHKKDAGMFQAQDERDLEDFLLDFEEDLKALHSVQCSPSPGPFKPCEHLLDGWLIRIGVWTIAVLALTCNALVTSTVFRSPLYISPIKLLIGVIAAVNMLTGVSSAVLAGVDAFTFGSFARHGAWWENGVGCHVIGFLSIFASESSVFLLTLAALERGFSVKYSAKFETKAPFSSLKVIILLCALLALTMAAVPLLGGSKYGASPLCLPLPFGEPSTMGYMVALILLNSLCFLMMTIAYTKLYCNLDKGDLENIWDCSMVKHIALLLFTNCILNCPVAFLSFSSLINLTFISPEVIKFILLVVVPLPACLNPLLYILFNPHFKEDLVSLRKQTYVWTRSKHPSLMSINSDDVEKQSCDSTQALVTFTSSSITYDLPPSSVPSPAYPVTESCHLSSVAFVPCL

B1: IgG HCA-F1 (antibody, V domains shown)
VH: QVQLQESGGGLVQPGGSLRLSCAASGFTFSSYSMNWVRQAPGKGLEWVSYISSSSSTIYYADSVKGRFTISRDNAKNSLYLQMNSLRAEDTAVYYCARYRLPDFWSGYPNYGMDVWGQGTTVTVSS
VL: QSVLTQPPSVSGAPGQRVTISCTGSSSNIGAGYDVHWYQQLPGTAPKLLIYGNSNRPSGVPDRFSGSKSGTSASLAITGLQAEDEADYYCQSYDSSLSGHVVFGGGTKLTVL
B1: no binding [1]; binds [2].
